Test results reported in publication PMC9135631 (2022).

Assays:
[1] = molecular target: T1, Latrophilin-3 ADHD-related variant D615N (Lphn3^D615N) (human)
T1 chain: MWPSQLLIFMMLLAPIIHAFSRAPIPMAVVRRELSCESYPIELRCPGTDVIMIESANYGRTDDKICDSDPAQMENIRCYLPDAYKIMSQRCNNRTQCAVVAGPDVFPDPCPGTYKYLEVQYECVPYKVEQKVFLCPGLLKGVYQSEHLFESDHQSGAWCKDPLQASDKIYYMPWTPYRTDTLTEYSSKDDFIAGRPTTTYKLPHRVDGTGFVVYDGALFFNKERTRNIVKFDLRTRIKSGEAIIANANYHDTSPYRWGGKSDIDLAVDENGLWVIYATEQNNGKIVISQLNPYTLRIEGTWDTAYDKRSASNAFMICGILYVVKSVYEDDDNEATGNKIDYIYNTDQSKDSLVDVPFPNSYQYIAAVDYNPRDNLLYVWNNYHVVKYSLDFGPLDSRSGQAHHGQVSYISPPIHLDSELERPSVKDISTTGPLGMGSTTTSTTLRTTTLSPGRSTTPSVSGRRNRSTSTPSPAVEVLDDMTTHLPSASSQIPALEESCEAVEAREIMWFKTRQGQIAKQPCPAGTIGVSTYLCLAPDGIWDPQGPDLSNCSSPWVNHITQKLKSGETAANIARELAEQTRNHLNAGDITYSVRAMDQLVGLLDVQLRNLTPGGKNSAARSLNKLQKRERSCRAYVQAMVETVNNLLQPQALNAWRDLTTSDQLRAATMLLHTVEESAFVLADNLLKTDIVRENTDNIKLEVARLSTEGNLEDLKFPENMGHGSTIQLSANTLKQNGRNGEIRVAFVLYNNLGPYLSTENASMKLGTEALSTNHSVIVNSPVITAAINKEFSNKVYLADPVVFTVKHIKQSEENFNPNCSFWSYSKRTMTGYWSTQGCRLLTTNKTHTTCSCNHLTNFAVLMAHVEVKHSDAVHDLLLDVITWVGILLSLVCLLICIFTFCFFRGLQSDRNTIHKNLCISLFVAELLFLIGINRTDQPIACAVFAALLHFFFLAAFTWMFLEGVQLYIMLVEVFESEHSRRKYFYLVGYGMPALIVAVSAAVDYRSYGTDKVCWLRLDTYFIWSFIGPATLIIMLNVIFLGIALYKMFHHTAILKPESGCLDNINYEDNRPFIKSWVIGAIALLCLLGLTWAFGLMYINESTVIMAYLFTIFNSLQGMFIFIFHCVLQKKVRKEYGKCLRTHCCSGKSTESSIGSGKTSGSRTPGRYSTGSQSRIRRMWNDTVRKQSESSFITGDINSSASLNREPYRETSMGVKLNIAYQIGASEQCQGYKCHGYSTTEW

[2] = molecular target: T2, Latrophilin-3 ADHD-related variant T783M (Lphn3^T783M) (human)
T2 chain: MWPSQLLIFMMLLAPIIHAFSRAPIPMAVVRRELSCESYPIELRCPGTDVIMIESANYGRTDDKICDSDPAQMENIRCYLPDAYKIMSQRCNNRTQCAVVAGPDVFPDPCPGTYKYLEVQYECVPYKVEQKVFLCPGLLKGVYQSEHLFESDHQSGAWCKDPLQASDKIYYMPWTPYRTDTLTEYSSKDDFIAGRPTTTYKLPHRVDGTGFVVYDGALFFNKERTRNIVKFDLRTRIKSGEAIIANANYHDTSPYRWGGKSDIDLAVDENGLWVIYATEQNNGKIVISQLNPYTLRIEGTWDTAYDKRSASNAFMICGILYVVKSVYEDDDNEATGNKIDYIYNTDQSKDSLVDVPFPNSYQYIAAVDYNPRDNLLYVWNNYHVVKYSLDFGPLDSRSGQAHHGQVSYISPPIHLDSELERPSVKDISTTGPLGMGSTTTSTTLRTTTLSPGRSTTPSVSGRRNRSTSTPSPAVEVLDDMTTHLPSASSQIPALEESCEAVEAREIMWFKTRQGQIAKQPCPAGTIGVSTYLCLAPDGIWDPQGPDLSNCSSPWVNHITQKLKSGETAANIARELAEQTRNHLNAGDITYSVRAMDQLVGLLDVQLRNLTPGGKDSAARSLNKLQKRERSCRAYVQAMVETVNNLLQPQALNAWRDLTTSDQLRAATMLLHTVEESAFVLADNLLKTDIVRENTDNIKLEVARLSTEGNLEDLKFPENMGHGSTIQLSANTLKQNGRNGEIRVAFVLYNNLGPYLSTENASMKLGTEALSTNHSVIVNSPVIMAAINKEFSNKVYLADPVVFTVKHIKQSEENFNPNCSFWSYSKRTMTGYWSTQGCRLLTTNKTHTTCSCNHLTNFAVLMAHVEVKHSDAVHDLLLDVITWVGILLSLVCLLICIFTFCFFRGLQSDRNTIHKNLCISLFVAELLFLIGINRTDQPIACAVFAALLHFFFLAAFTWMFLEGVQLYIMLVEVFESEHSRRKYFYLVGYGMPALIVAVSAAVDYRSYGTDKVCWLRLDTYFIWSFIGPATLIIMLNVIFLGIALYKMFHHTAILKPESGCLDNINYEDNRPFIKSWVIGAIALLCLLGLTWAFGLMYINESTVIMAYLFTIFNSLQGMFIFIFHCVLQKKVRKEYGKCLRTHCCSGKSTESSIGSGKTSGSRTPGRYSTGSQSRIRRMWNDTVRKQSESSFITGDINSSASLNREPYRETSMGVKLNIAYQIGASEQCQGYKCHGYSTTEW

- Kd [1]: 1.25 nM
- Kd [2]: 1.22 nM
B1: soluble FLRT3 extracellular domain fused to the constant fraction of human IgG (FLRT3^ECD-Fc) (Fc fusion)
chain: KSCPSVCRCDAGFIYCNDRFLTSIPTGIPEDATTLYLQNNQINNAGIPSDLKNLLKVERIYLYHNSLDEFPTNLPKYVKELHLQENNIRTITYDSLSKIPYLEELHLDDNSVSAVSIEEGAFRDSNYLRLLFLSRNHLSTIPWGLPRTIEELRLDDNRISTISSPSLQGLTSLKRLVLDGNLLNNHGLGDKVFFNLVNLTELSLVRNSLTAAPVNLPGTNLRKLYLQDNHINRVPPNAFSYLRQLYRLDMSNNNLSNLPQGIFDDLDNITQLILRNNPWYCGCKMKWVRDWLQSLPVKVNVRGLMCQAPEKVRGMAIKDLNAELFDCKDSGIVSTIQITTAIPNTVYPAQGQWPAPVTKQPDIKNPKLTKDHQTTGSPSRKTITITVKSVTSDTIHISWKLALPMTALRLSWLKLGHSPAFGSITETIVTGERSEYLVTALEPDSPYKVCMVPMETSNLYLFDETPVCIETETAPLRMYNPTTTLNREQEKEPYKNPNLP
modifications: HA/Flag epitopes left out; isoform assumed; signal peptide removed and GPS autoproteolysis expected
